Assay results: paper PMC6996922

Experiments:
[1] = biological target: Chk1 (UniProt O14757); assay: biotin-peptide streptavidin pull-down, purified Chk1; settings: reference: NC peptide with pT916 and pS945, untreated; sites T916,S945
[2] = biological target: Chk1 (UniProt O14757); assay: biotin-peptide streptavidin pull-down from lysate; settings: reference: NC peptide with pT916 and pS945, untreated; sites T916,S945

binding against the reference [1]: lost
binding against the reference [2]: lost
Substance: Claspin NC peptide, 901-955 (from UniProt Q9HAW4) NC peptide pretreated with λ-phosphatase
